Test results taken from FireProtDB.

B1: Alpha-lactalbumin, P00712 (parent)
chain: MMSFVSLLLVGILFHATQAEQLTKCEVFQKLKDLKDYGGVSLPEWVCTAFHTSGYDTQAIVQNNDSTEYGLFQINNKIWCKDDQNPHSRNICNISCDKFLDDDLTDDIVCAKKILDKVGINYWLAHKALCSEKLDQWLCEKL

Variants of: B1
Details: Capra hircus; pH 7; 25 °C; GdnHCl; CD; sodium cacodylate 50 mM; NaCl 50 mM; reversible: yes; structure 1HFY; whole UniProt chain shown

| Variant | ddG of mutation (higher = less stable) | denaturant m value | denaturant midpoint (higher = more stable) | unfolding free energy |
| --- | --- | --- | --- | --- |
| MMSFVSLLLVGILFHATQAEQLTKCEVFQKLKDLKDYGGVSLPEWVCTAFHISGYDTQAIVQNNDSTEYGLFQINNKIWCKDDQNPHSRNICNISCDKFLDDDLTDDIVCAKKILDKVGINYWLAHKALCSEKLDQWLCEKL [T52I] | 1.1 kcal/mol | 2 kcal/mol/M | 2.31 M | 4.6 kcal/mol |
| MMSFVSLLLVGILFHATQAEQLTKCEVFQKLKDLKDYGGVSLPEWVCTIFHTSGYDTQAIVQNNDSTEYGLFQINNKIWCKDDQNPHSRNICNISCDKFLDDDLTDDIVCAKKILDKVGINYWLAHKALCSEKLDQWLCEKL [A49I] | -2.4 kcal/mol | 2.7 kcal/mol/M | 3.01 M | 8.1 kcal/mol |
| MMSFVSLLLVGILFHATQAEQLTKCEVFQKLKDLKDYGGVSLPEWVCTTFHTSGYDTQAIVQNNDSTEYGLFQINNKIWCKDDQNPHSRNICNISCDKFLDDDLTDDIVCAKKILDKVGINYWLAHKALCSEKLDQWLCEKL [A49T] | -1.7 kcal/mol | 3.1 kcal/mol/M | 2.44 M | 7.4 kcal/mol |
| MMSFVSLLLVGILFHATQAEQLTKCEVFQKLKDLKDYGGVSLPEWVCIAFHTSGYDTQAIVQNNDSTEYGLFQINNKIWCKDDQNPHSRNICNISCDKFLDDDLTDDIVCAKKILDKVGINYWLAHKALCSEKLDQWLCEKL [T48I] | -4.4 kcal/mol | 2.6 kcal/mol/M | 3.93 M | 10.1 kcal/mol |
| MMSFVSLLLVGILFHATQAEQLTKCEVFQKLKDLKDYGGVSLPEWVCTIFHISGYDTQAIVQNNDSTEYGLFQINNKIWCKDDQNPHSRNICNISCDKFLDDDLTDDIVCAKKILDKVGINYWLAHKALCSEKLDQWLCEKL [A49I T52I] | -0.4 kcal/mol | 2.1 kcal/mol/M | 2.85 M | 6.1 kcal/mol |
